# Results as given in patent publication US20250277199, “NOVEL CRISPR-CAS NUCLEASES FROM METAGENOMES” (Brain Biotech AG, published 2025).
# B1: malQ gRNA (BMC stem-loop + 24 nt spacer) ; malQ protospacer (ssRNA ; dsDNA)
# RNA: GAUUUCUACUAUUGUAGAUGUGGCGGUACGUUGAUGCAUCGCG
# DNA 1: GTGGCGGTACGTTGATGCATCGCG
# DNA 2: CGCGATGCATCAACGTACCGCCAC
# Target: T1, BMC09 (uncultured bacterium (metagenome))
# T1 chain: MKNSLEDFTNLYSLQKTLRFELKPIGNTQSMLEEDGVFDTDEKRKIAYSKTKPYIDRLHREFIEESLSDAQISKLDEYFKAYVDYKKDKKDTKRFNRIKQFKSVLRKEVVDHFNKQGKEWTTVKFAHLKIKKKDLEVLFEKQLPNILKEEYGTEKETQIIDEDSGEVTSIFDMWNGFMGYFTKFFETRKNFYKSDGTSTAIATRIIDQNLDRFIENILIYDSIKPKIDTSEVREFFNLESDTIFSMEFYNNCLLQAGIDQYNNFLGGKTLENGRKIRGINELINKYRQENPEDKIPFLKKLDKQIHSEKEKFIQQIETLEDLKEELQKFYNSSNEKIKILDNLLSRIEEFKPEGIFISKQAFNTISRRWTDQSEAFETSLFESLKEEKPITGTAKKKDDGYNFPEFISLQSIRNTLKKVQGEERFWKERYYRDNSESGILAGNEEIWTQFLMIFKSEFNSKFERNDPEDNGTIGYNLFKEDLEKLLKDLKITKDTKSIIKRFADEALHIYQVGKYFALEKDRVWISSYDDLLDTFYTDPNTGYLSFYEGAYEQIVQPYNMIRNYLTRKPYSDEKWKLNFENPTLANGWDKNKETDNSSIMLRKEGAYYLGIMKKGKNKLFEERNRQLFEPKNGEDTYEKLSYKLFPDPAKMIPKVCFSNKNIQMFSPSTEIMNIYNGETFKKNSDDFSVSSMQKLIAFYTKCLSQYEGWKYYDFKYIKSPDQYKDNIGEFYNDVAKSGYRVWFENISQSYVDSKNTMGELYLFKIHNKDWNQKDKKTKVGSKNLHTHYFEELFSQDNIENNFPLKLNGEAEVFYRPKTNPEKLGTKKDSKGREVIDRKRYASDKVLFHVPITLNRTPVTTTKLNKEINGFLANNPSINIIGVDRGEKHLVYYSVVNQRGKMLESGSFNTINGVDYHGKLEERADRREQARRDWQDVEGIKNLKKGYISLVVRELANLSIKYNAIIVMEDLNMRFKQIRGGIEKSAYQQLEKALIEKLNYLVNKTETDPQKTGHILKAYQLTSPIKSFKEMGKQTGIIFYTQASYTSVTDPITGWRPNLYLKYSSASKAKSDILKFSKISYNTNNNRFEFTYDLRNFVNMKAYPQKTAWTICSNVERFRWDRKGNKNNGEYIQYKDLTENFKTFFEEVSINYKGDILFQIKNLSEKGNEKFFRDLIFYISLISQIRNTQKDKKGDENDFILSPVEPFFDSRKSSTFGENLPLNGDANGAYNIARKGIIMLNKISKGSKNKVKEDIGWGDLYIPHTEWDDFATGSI
# Assay: cell_activity; PAM not stated; E. coli depletion, 30 C
# Procedure: Overnight grown pre-cultures were diluted into fresh 60 ml LB-Kanamycin (25 μg/ml) (Example 4) or LB-Kanamycin (25μg/ml)/Nourseothricin (50 μg/ml) medium (Example 5) to obtain an optical density at 600 nm (OD600) of 0.06. The inoculated medium was incubated at 30° C. on a horizontal shaker at 250 rpm until the culture reached an optical density at OD600 of 0.2. For induced BMC (NN) nuclease expression, 600 μl 20% L-(+)-arabinose (w/v) was added to the culture at a final concentration of 0.2% (v/v). The cultivation was continued until the culture reached an optical density at OD600 of 0.5. Subsequently 50 ml culture was transferred into one 50 ml conical tube and harvested by centrifugation at 4° C. for 5 min and 4000×g. Pelleted cells were resuspended in 50 ml ultrapure water (ice-cold) and centrifuged at 4° C. for 5 min and 4000×g.
# This washing procedure was repeated twice. Washed cells were resuspended in 25 ml 10% (w/w) glycerin and re-centrifuged at 4° C. for 5 min and 4000×g. The pelleted cells were resuspended in 5 ml 10% (w/w) glycerin. After the final centrifugation step at 4° C. for 5 min and 4000×g, the cells were resuspended in 125 μl 10% (w/w) glycerin. Aliquots of 25 μl competent cells were stored at −80° C. until use. For the transformation procedure, aliquots of competent cells were thawed on ice and 50-100 ng plasmid DNA (CRISPR/gRNA-Ec) was added. Prepared cells were electroporated at 1800 V, 25 μF and 200 Ω in 1 mm gap size electroporation cuvettes, using the Bio-Rad Gene Pulser Xcell Electroporation System. Subsequently, 975 μL of NEB® 10-beta/Stable Outgrowth Medium was added immediately after the pulse to the transformed cells. Regeneration was done at 30° C. on a horizontal shaker at 250 rpm. Finally, 25-100 μl of the cell suspension was plated onto selective M9-Glucose agar plates supplemented with Kanamycin (25 μg/ml)/Ampicillin (100 μg/ml) (Example 4) or Kanamycin (25 μg/ml)/Ampicillin (100 μg/ml)/Nourseothrin (50 μg/ml) (Example 5). Growth of transformed E. coli cells on selective agar plates was screened for 48 h at 30° C.
# As described above, each of the BMC01, BMC02, BMC03, BMC04, BMC05, BMC07, BMC08, BMC09, BMC10, BMC11, BMC12, BMC13, BMC14, or BMC15 nucleases was co-transformed into E. coli with a gRNA targeting the E. coli malQ gene to visualize a) the activity and b) the DNA targeting efficiency of the BMC nucleases.
binder,measurement,value
B1,activity,> 99.9 % colony reduction
